Series [1] concerns the target T1, propeptide of Rhizomucor miehei lipase (RmL propeptide).
T1 chain: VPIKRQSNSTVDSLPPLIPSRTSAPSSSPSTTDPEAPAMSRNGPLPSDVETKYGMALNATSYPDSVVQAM

Series [2] concerns the target T2, Rhizomucor miehei lipase (RmL) mature protein (Rhizomucor miehei, UniProt P19515 95-363).
T2 sequence: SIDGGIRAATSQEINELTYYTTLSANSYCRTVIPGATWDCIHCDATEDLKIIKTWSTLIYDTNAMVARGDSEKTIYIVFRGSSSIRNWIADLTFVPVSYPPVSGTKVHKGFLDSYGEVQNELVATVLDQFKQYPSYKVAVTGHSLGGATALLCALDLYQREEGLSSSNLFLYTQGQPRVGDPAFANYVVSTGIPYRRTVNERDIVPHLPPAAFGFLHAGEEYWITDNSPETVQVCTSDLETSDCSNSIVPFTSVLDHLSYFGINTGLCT
Description: cell-based or functional assay.

Another series has as its target T3, Lipex (SEQ ID NO: 5) (Thermomyces lanuginosus (Thermophilic …, UniProt O59952 23-291)).
T3 chain: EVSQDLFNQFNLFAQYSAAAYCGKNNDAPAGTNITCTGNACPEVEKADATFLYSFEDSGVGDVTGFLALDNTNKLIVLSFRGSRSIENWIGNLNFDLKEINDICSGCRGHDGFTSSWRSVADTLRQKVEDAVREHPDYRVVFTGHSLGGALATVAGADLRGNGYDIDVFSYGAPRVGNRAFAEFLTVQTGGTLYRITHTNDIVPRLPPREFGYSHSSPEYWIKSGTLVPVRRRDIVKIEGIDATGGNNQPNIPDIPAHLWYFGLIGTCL
The series is described as follows: cell-based or functional assay.

Series [3] addresses T4, MuciLip2CN (SEQ ID NO: 6).
T4 chain: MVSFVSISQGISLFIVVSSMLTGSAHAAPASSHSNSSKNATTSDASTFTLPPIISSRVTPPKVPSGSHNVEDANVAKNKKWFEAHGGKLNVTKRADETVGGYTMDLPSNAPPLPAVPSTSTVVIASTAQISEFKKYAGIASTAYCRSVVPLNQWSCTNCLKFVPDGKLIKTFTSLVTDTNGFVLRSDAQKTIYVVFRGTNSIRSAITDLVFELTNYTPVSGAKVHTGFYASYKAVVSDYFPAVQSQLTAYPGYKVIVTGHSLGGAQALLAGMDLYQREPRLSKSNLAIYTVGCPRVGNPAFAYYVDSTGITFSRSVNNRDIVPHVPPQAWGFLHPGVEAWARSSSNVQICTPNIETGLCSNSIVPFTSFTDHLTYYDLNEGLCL
Description: cell-based or functional assay.

For the next series, the target named is T5, RhimiLip1 (SEQ ID NO: 7).
T5 chain: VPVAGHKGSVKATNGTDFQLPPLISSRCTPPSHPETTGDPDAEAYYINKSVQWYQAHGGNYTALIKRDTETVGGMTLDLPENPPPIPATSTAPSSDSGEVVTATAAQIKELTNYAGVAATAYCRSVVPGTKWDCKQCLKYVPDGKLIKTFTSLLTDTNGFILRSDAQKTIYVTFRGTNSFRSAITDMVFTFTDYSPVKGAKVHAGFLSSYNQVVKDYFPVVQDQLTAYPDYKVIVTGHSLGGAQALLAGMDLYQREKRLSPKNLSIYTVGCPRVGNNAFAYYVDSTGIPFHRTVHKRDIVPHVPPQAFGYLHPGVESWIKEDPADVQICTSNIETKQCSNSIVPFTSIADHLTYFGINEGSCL
Description: cell-based or functional assay.

B1: Rhizomucor miehei lipase (RmL) mature protein (protein)
chain: T2 sequence
For the molecule B1, the “hydrolytic activity on p-nitrophenyl acyl esters (C3, C6, C10, C12, C16), release of p-nitrophenol at 405 nm” value in series [1] is recorded as “RmL with the propeptide bound showed no activity at any of the conditions tested”.

B2: propeptide of Rhizomucor miehei lipase (RmL propeptide) (peptide)
peptide: T1 chain
As to B2, the “RP(wash) with inhibitor, AMSA, propeptide:lipase 320:1 (normalized to no inhibitor = 1.00)” value is 0.02 in series [2], 0.89 with Lipex (SEQ ID NO: 5), 1.1 in series [3] and 0.92 in the series with RhimiLip1 (SEQ ID NO: 7).

Source of the values: US20190153410A1 (NOVOZYMES A S, published 2019).
